Test results reported in patent publication US20180010117.

Assays:
Assay in all cases: cell_activity
[1] = test system: ZFN SBS#61033 (engineered); details: paired with 61029, K562, 800 ng RNA each; 76.9 at 200 ng; with 61028 73.5
[2] = test system: ZFN SBS#61035 (engineered); details: paired with 61029, K562, 800 ng RNA each; 63.6 at 200 ng; with 61028 68.7
[3] = test system: ZFN SBS#61042 (engineered); details: paired with 61036, K562, 800 ng RNA each; 12.9 at 200 ng; with 61034 26.1
[4] = test system: ZFN SBS#61041 (engineered); details: paired with 61036, K562, 800 ng RNA each; 14.5 at 200 ng; with 61034 30.1
[5] = test system: ZFN SBS#61036 (engineered); details: paired with 61041, K562, 800 ng RNA each; 14.5 at 200 ng; with 61042 40.6
[6] = test system: ZFN SBS#61034 (engineered); details: paired with 61041, K562, 800 ng RNA each; 9.6 at 200 ng; with 61042 26.1
[7] = test system: ZFN SBS#61027 (engineered); details: paired with 61024, K562, 800 ng RNA each; 4.5 at 200 ng
[8] = test system: ZFN SBS#61028 (engineered); details: paired with 61033, K562, 800 ng RNA each; 54.3 at 200 ng; with 61035 68.7
[9] = test system: ZFN SBS#61029 (engineered); details: paired with 61033, K562, 800 ng RNA each; 76.9 at 200 ng; with 61035 80.7

CCAATAGGGATAGGTATGAGATATTCAC (double strand) [CEP290 site of 61033/61035]
activity [1]: 85.4 % indels | activity [2]: 80.7 % indels

CCAATAGGGATAGGTATGAGATATTCAC (double strand) [CEP290 site of 61041/61042]
activity [3]: 40.6 % indels | activity [4]: 43.6 % indels

CCCCAGTTGTAATTGTGAATATCTCATA (double strand) [CEP290 site of 61034/61036]
activity [5]: 43.6 % indels | activity [6]: 30.1 % indels

TAGGGATAGGTATGAGATATTCACAATT (double strand) [CEP290 site of 61027]
activity [7]: 27.1 % indels

TGGCCCCAGTTGTAATTGTGAATATCTC (double strand) [CEP290 site of 61028/61029]
activity [8]: 73.5 % indels | activity [9]: 85.4 % indels
